We go through two molecules from paper doi:10.1101/2022.04.26.489529 (bioRxiv, 2022).

The target of experiment [1] is S protein of the SARS-CoV-2 strain D614G (SARS-CoV-2, D614G, UniProt A0A6H1PJZ3, D614G). Nature of the experiment: ELISA.
Experiment [2] addresses stabilized Omicron S ECD HexaPro (SARS-CoV-2 Omicron BA.1, N440K | S477N | T478K | E484A | Q493R). Nature of the experiment: cryo-EM structure.

B1: 58G6 (antibody, V domains shown)
VH: QMQLVQSGPEVKKPGTSVKVSCKASGFTFSSSAVQWVRQARGQHLEWIGWIVVGSGNTNYAQKFQERVTLTRDMSTRTAYMELSSLRSEDTAVYYCAAPNCNSTTCHDGFDIWGQGTVVTVSS
VL: EIVLTQSPGTLSLSPGERATLSCRASQSVRSSYLGWYQQKPGQAPRLLIYGASSRATGIPDRFSGSGSGTDFTLTISRLESEDFAVYYCQQYDNSPWTFGQGTKVEIK
Regarding B1, the binding result in experiment [1] is on record as “binds”.

B2: 58G6 Fab (Fab, V domains shown)
VH: B1 VH
VL: B1 VL
Regarding B2, in experiment [2], the stoichiometry N (in general, the number of molecules, sites or subunits per partner or assembly) amounted to 1 Fab per trimer.
